Data as given in US20110269817A1 (University of California, published 2011).

Target: Myc-tagged PER2 (transfected in JEG3 cells) (UniProt O54943 1-1257, limits assumed)
Assay: coimmunoprecipitation with FLAG antibody from cotransfected JEG3 cells, Western with anti-Myc (FIG. 5A)
Protocol: (A) JEG3 cells were cotransfected with a series of expression vectors as described. Flag-tagged SIRT1 proteins were immunoprecipitated by FLAG antibody, and abundance of coimmunoprecipitated proteins was determined by western blotting using anti-Myc antibody (top right panel) and anti-SIRT1 antibody (bottom right panel). Left panels show the immunoblotting results of total cell lysates as an input.

Chain of Myc-tagged PER2 (transfected in JEG3 cells) (O54943 whole entry): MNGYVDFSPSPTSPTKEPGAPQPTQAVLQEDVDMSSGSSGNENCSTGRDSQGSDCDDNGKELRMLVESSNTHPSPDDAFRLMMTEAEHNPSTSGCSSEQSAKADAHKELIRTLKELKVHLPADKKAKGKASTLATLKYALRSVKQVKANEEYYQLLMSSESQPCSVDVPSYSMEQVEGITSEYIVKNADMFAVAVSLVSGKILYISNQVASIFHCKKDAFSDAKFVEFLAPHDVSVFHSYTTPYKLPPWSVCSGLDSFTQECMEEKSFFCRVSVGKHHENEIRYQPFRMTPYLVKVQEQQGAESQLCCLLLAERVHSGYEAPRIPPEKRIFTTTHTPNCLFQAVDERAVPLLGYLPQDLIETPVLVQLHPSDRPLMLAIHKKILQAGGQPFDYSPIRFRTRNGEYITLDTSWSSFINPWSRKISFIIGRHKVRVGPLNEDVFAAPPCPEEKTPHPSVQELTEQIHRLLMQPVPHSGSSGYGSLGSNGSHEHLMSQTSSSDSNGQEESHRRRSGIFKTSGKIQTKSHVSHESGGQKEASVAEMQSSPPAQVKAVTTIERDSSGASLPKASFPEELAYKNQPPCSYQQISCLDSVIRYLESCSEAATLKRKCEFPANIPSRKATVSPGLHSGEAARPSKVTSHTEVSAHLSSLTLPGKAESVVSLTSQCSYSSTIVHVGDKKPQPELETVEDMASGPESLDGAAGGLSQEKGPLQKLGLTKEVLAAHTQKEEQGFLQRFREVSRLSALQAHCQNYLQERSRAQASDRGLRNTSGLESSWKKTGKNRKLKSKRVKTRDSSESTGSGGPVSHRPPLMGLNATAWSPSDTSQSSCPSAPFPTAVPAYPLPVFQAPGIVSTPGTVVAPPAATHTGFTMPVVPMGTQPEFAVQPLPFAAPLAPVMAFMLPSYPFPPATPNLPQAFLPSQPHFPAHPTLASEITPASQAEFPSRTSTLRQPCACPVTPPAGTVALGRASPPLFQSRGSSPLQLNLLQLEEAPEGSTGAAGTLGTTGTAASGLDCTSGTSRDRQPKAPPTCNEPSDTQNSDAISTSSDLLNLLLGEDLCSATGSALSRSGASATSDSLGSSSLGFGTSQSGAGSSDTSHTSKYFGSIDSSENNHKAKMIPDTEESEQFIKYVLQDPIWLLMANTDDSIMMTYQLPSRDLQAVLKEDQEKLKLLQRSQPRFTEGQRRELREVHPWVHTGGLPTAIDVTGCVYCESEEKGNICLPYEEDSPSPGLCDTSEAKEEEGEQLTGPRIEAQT

binding result: no binding
B1: Flag-tagged SIRT1 (transfected in JEG3 cells) (enzyme, mouse, UniProt Q923E4 1-737, looked up, not shown: small tags and cut ends)
chain: MADEVALALQAAGSPSAAAAMEAASQPADEPLRKRPRRDGPGLGRSPGEPSAAVAPAAAGCEAASAAAPAALWREAAGAAASAEREAPATAVAGDGDNGSGLRREPRAADDFDDDEGEEEDEAAAAAAAAAIGYRDNLLLTDGLLTNGFHSCESDDDDRTSHASSSDWTPRPRIGPYTFVQQHLMIGTDPRTILKDLLPETIPPPELDDMTLWQIVINILSEPPKRKKRKDINTIEDAVKLLQECKKIIVLTGAGVSVSCGIPDFRSRDGIYARLAVDFPDLPDPQAMFDIEYFRKDPRPFFKFAKEIYPGQFQPSLCHKFIALSDKEGKLLRNYTQNIDTLEQVAGIQRILQCHGSFATASCLICKYKVDCEAVRGDIFNQVVPRCPRCPADEPLAIMKPEIVFFGENLPEQFHRAMKYDKDEVDLLIVIGSSLKVRPVALIPSSIPHEVPQILINREPLPHLHFDVELLGDCDVIINELCHRLGGEYAKLCCNPVKLSEITEKPPRPQKELVHLSELPPTPLHISEDSSSPERTVPQDSSVIATLVDQATNNNVNDLEVSESSCVEEKPQEVQTSRNVENINVENPDFKAVGSSTADKNERTSVAETVRKCWPNRLAKEQISKRLEGNQYLFVPPNRYIFHGAEVYSDSEDDVLSSSSCGSNSDSGTCQSPSLEEPLEDESEIEEFYNGLEDDTERPECAGGSGFGADGGDQEVVNEAIATRQELTDVNYPSDKS
notes: The plasmid list holds a mouse N-terminal FLAG construct and also Flag-hSIRT1/pECE, so the species used in these experiments is not certain; also called Flag-SIRT1
